From patent US20050119456A1 (NEW YORK UNIVERSITY, published 2005)

Target: T1, GST-SMRT (Hu SMRT(1-900) fused to GST, from pGEX-6p-1) (human, UniProt Q9Y618 1-900)
T1 construct: range 1-900; Expressed in bacteria with IPTG and adsorbed onto glutathione sepharose 4B; also called GST-SMRT agarose; immobilized SMRT; not shown: glutathione S-transferase of the pGEX-6p-1 bacterial expression vector
Assay: GST pull-down of 35S-labeled in vitro translated C21 fragment
Excerpt: FIGS. 15A and 15B show GST-pull-down of in vitro synthesized C21 by SMRT (1-900). Hu SMRT(1-900) cDNA was amplified by PCR and cloned in-frame into pGEX-6p-1 (GST fusion expression vector for bacterial expression). Expression of the GST fusion protein (FIG. 15A) or control (FIG. 15B) was induced with IPTG and the product adsorbed onto glutathione sepharose 4B. hC21 (full-length ORF or fragments lacking the C-terminal half(δ C), the F-box (δ F), the N terminal 40 amino acid (δ N) or a construct lacking both the N-terminus and the F-box (δN+F) was cloned in-frame into pCDNA3 vector with a Flag tag at the N-terminus. The plasmid, linearized with EcoRI, was purified and used as a template to label the product. For the pull-down experiments, 5 ng of ³⁵S-labeled hC21 protein(s) and 20 ul of GST agarose or GST-SMRT agarose were mixed. All four C21 constructs labeled with equal efficiency and the same quantity of labeled protein were used in each experiment. The denatured proteins were then electrophoresed through a 10% SDS PAGE gel.
Labeled C21 prepared by in vitro translation using 35S methionine can be “pulled-down” by immobilized SMRT. […] A fragment (21[δC]) consisting only of the first 230 amino acids (i.e., lacking all of the WD40 repeats and the carboxyl terminus) was as efficient as the full-length protein in reacting with SMRT.

T1 sequence (Q9Y618 1-900): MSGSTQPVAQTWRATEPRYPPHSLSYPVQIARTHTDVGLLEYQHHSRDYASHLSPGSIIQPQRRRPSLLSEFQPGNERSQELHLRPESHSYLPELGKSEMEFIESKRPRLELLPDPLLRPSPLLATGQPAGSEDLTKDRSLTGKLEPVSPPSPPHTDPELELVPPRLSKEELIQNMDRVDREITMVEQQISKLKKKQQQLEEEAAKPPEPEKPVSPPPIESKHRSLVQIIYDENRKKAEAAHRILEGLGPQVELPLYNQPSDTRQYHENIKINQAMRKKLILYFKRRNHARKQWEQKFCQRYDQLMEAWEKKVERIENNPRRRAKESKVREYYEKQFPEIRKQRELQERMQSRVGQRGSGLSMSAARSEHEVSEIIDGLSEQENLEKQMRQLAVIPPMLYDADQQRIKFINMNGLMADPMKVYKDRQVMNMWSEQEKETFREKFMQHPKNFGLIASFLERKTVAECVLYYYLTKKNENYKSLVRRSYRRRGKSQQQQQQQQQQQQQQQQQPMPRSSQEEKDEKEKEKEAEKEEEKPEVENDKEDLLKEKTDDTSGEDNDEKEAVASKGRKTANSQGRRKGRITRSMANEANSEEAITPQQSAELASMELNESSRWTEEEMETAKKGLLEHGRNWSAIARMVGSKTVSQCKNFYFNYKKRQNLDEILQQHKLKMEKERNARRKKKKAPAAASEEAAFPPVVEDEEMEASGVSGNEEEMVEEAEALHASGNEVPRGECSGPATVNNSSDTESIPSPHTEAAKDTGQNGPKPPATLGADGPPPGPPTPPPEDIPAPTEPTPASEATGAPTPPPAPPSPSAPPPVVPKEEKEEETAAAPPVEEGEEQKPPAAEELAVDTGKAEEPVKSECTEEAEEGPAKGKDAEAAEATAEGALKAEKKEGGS

B1: 21[5N] (other)
chain: GALVPPAALISIIQKGLQYVEAEVSINEDGTLFDGRPIESLSLIDAVMPDVVQTRQQAYRDKLAQQQAAAAAAAAAAASQQGSAKNGENTANGEENGAHTIANNHTDMMEVDGDVEIPPNKAVVLRGHESEVFICAWNPVSDLLASGSGDSTARIWNLSENSTSGSTQLVLRHCIREGGQDVPSNKDVTSLDWNSEGTLLATGSYDGFARIWTKDGNLASTLGQHKGPIFALKWNKKGNFILSAGVDKTTIIWDAHTGEAKQQFPFHSAPALDVDWQSNNTFASCSTDMCIHVCKLGQDRPIKTFQGHTNEVNAIKWDPTGNLLASCSDDMTLKIWSMKQDNCVHDLQQHNKEIYTIKWSPTGPGTNNPNANLMLASASFDSTVRLWDVDRGICIHTLTKHQEPVYSVAFSPDGRYLASGSFDKCVHIWNTQTGALVHSYRGTGGIFEVCWNAAGDKVGASASDGSVCVLDLRK
modifications: 35S-methionine label
notes: also called δ N; hC21 fragment lacking the N terminal 40 amino acid; not shown: Flag tag at the N-terminus
- binding result: no binding
